Measurements as given in article PMC7036032.

Molecular target: cleavage stimulation factor (CstF): CstF77-CstF50-CstF64(1-195) (human) (UniProt Q12996)
Assay: SEC

## mammalian polyadenylation specificity factor (mPSF): CPSF160-WDR33(1-572)-CPSF30-Fip1(1-243), Q10570 1-1443; Q9C0J8 1-572; O95639-2 1-244; Q6UN15 1-243
  stoichiometry N: 1
